Read-outs that look alike come from different tables or passages of the source.

One may read the Kd as the constant that tells how readily two partners part at equilibrium. High values mean a looser complex, low ones a tighter complex.

Data set [1] has as its target T1, dephosphorylated Aurora A kinase (Aurora A^122-403) (UniProt O14965 122-403).
T1 chain: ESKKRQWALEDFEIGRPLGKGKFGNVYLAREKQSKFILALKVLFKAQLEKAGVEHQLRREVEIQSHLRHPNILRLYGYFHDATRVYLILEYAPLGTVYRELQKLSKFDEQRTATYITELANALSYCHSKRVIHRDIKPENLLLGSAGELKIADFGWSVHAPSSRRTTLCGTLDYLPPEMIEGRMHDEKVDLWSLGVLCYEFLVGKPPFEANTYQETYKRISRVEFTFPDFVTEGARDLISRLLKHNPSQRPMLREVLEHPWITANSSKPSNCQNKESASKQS
The experiment in a line: ITC.

The target in data set [2] is T2, dephosphorylated Aurora A kinase (Aurora A^122-403) (human, UniProt O14965 122-403).
T2 construct: also called AurA; deP Aurora A^122-403
T2 sequence: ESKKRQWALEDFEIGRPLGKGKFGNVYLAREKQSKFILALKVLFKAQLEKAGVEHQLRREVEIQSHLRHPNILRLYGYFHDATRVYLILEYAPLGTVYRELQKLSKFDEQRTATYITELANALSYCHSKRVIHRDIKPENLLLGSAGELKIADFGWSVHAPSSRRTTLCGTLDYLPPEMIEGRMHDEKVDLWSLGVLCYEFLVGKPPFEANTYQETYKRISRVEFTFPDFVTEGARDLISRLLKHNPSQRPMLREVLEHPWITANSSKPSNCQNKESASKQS
As to the kind of experiment: ITC; Aurora A pre-saturated with barasertib. The procedure:
(§1) Titrations were carried out using Nano ITC isothermal titration calorimeter (TA Instruments) and analyzed via the NanoAnalyze software using the independent fit model. Injectant was added in 1 μl volume, every 180 s, with a constant stirring speed at 350 rpm and at 25° C.
In general terms: Isothermal titration calorimetry measures the heat released or taken up as one component is titrated into another.

In data set [3] the target is T2, dephosphorylated Aurora A kinase …. As to the kind of experiment: ITC. The procedure:
Error bars in FIGS. 18D and 18F represent the standard error for the estimate of Kd and are a measure of the goodness of fit of the data. Error bars in FIG. 18C were calculated through jackknifing.
as §1

Data set [4] deals with T1, dephosphorylated Aurora A kinase …. As to the kind of experiment: ITC.
Data set [5] has the same target. As to the kind of experiment: ITC.
Data set [6] concerns the target T3, Aurora A kinase in HEK293 cells (human, UniProt O14965 1-403).
T3 construct: not on the cell surface; also called Aurora A kinase (endogenous, HEK293)
T3 sequence: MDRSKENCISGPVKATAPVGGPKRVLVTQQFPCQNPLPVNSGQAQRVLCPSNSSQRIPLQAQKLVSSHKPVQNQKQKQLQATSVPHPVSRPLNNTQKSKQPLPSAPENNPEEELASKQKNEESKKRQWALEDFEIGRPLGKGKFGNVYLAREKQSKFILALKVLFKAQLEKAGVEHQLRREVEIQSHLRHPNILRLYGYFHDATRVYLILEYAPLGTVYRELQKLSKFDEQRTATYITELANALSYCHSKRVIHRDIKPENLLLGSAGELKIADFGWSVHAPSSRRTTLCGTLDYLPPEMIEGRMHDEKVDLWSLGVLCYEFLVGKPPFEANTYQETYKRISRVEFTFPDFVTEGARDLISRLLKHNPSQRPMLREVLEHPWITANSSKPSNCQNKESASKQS
The experiment in a line: immunofluorescence co-localization in HEK293 cells.

Data set [7] has as its target T1, dephosphorylated Aurora A kinase …. As to the kind of experiment: ITC.
Data set [8] has the same target. As to the kind of experiment: ITC.
The target in data set [9] is T2, dephosphorylated Aurora A kinase …. As to the kind of experiment: told with the kinase assay results (FIG. 9); method of the affinity not named there.
Data set [10] has as its target T4, TPX2.
T4 chain: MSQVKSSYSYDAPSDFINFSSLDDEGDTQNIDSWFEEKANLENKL

B1: monobody Mb44 (AuroraA_44) (designed binder)
chain: GSVSSVPTKLEVVAATPTSLLISWDAPAVTVDFYVITYGETGGYSYPWQEFEVPGSKSTATISGLKPGVDYTITVYADYGQYFYSPISINYRT
notes: FN3-scaffold monobody; also called M44
Regarding B1, in data set [1], binding was characterised by a dissociation constant (Kd) of 3280 nM. Further, the “fold weakening of binding affinity (Aurora A pre-saturated with barasertib against Aurora A alone)” value in data set [2] came out at 5 fold.

MSQVKSSYSYDAPSDFINFSSLDDEGDTQNIDSWFEEKANLENKL (other, also called TPX2 polypeptide) [TPX2]: the values for the Kd in [3] and in [4] were approximately 5000 nM and 5400 nM, respectively.

B2: monobody Mb56 (AuroraA_56) (designed binder)
chain: GSVSSVPTKLEVVAATPTSLLISWDAMSDWYYWVDYYRITYGETGGNSPVQEFTVPGSYSTATISGLKPGVDYTITVYASDDVWGDYSPISINYRT
notes: FN3-scaffold monobody; also called Mb3
Regarding B2, the binding result in data set [3] is recorded as “binds”. Besides, in [1], the affinity, expressed as Kd, was 163 nM.

B3: monobody Mb60 (AuroraA_60) (designed binder)
chain: GSVSSVPTKLEVVAATPTSLLISWDAPAVTVVHYVITYGETGGNSPVQEFTVPGSKSTATISGLKPGVDYTITVYAIDFYWGSYSPISINYRT
notes: FN3-scaffold monobody; also called Mb2 (alternative name herein)
With B3, the binding result in [3] was “binds”. Moreover, in data set [4], the Kd came to 1000 nM.

B4: sGFP-Mb60 fusion polypeptide (designed binder)
chain: GSVSSVPTKLEVVAATPTSLLISWDAPAVTVVHYVITYGETGGNSPVQEFTVPGSKSTATISGLKPGVDYTITVYAIDFYWGSYSPISINYRT
notes: also called sGFP-Mb2 (aka Mb60); not shown: supercharged GFP (sGFP)
Consider B4, for which the binding result in data set [3] and in data set [6] was “binds” each time. Besides, the Kd in [5] stood at 2500 nM.

B5: sGFP-Mb6 fusion polypeptide (designed binder)
chain: GSVSSVPTKLEVVAATPTSLLISWDAFGHQYEPVYYYRITYGETGGNSPVQEFTVPGYYSTATISGLKPGVDYTITVYAWYVDGSYSSPISINYRT
notes: also called neutral sGFP-Mb6; not shown: supercharged GFP (sGFP)
In data set [7], B5 registered a Kd of 27.4 nM. In addition, the binding result in data set [6] is given as “binds”.

B6: monobody Mb2 (aka Mb6) (AuroraA_2) (designed binder)
chain: GSVSSVPTKLEVVAATPTSLLISWDAFGHQYEPVYYYRITYGETGGNSPVQEFTVPGYYSTATISGLKPGVDYTITVYAWYVDGSYSSPISINYRT
notes: also called neutral monobody
Turning to B6, the affinity in [8], expressed as Kd, was 8.7 nM. Further, the binding result in data set [9] was “binds”.

B7: monobody Mb54 (AuroraA_54) (designed binder)
chain: GSVSSVPTKLEVVAATPTSLLISWDAQTYQMYDYVSYYRITYGETGGNSPVQEFTVPGYYSTATISGLKPGVDYTITVYAEGYYSSYSPISINYRT
notes: FN3-scaffold monobody; also called Mb1
Consider B7, for which the binding result in data set [3] is “binds”. Binding in data set [4] was put at a Kd of 175 nM.

B8: sGFP-Mb54 fusion polypeptide (designed binder)
chain: GSVSSVPTKLEVVAATPTSLLISWDAQTYQMYDYVSYYRITYGETGGNSPVQEFTVPGYYSTATISGLKPGVDYTITVYAEGYYSSYSPISINYRT
notes: also called sGFP-Mb54 (aka Mb1); sGFP-Mb1; not shown: supercharged GFP (sGFP)
As to B8, the binding result in data set [3] and in data set [6] was “binds” each time. In data set [7], this molecule had a Kd of 121 nM.

B9: Aurora A T288V mutant (A^122-403 T288V) (protein)
chain: ESKKRQWALEDFEIGRPLGKGKFGNVYLAREKQSKFILALKVLFKAQLEKAGVEHQLRREVEIQSHLRHPNILRLYGYFHDATRVYLILEYAPLGTVYRELQKLSKFDEQRTATYITELANALSYCHSKRVIHRDIKPENLLLGSAGELKIADFGWSVHAPSSRRTVLCGTLDYLPPEMIEGRMHDEKVDLWSLGVLCYEFLVGKPPFEANTYQETYKRISRVEFTFPDFVTEGARDLISRLLKHNPSQRPMLREVLEHPWITANSSKPSNCQNKESASKQS
On to B9, for which the “kinase activity (phosphorylation of AP peptide)” value in [10] is “greatly increased its kinase activity”.

B10: phosphorylated Aurora A kinase (protein)
chain: ESKKRQWALEDFEIGRPLGKGKFGNVYLAREKQSKFILALKVLFKAQLEKAGVEHQLRREVEIQSHLRHPNILRLYGYFHDATRVYLILEYAPLGTVYRELQKLSKFDEQRTATYITELANALSYCHSKRVIHRDIKPENLLLGSAGELKIADFGWSVHAPSSRRTTLCGTLDYLPPEMIEGRMHDEKVDLWSLGVLCYEFLVGKPPFEANTYQETYKRISRVEFTFPDFVTEGARDLISRLLKHNPSQRPMLREVLEHPWITANSSKPSNCQNKESASKQS
As to B10, the “kinase activity (phosphorylation of AP peptide)” value in data set [10] was “only slightly increased kinase activity”.

B11: monobody Mb51 (AuroraA_51) (designed binder)
chain: GSVSSVPTKLEVVAATPTSLLISWDAKPMSYEPVYYYRITYGETGGNSPVQEFTVPGYYSTATISGLKPGVDYTITVYADSMSSYYYSPISINYRT
notes: FN3-scaffold monobody
With B11, the Kd in data set [1] came out at 76.9 nM. The “fold weakening of binding affinity (Aurora A pre-saturated with barasertib against Aurora A alone)” value in [2] turned out to be 2.8 fold.

(Values after patent publication US20190038582A1 (published 2019).)
